Experimental findings from patent US20230365705A1 (DYNAMICURE BIOTECHNOLOGY, published 2023) are described below.

For assay [1], the target named is T1, Human CD93 on cells (human CD93 expressing CHO cells; HUVEC, U937 and KG1a cells) (human, UniProt Q9NPY3 22-652).
T1 construct: whole, on cells; also called hCD93 expressing CHO cells; hCD93 CHO cells
T1 sequence (looked up): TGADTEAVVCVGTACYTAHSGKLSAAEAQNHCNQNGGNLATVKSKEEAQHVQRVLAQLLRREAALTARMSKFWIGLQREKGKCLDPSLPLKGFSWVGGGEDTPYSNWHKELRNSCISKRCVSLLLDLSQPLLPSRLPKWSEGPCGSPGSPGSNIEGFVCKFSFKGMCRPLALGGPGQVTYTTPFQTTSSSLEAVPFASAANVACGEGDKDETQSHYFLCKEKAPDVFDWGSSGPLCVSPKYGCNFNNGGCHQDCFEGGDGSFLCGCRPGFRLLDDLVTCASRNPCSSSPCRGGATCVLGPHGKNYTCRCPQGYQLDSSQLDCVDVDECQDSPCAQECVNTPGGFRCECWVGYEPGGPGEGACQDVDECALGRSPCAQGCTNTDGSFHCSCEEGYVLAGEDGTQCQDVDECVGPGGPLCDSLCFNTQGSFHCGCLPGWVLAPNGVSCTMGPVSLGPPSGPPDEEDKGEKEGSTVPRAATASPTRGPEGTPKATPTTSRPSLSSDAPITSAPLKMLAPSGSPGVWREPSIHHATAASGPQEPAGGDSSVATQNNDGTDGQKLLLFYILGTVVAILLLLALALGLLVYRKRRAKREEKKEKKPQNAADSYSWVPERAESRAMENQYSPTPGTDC
Put plainly: flow cytometry titration on human CD93 CHO cells; column head printed kd, unit from the axis log (concentration (M)). As for the experimental part: Cells were quenched with media then counted. Cells were resuspended in FACS buffer (ice cold PBS with 0.5% BSA) and human serum was added to 20% (10% final volume) and put on ice for approximately 20 minutes. 5×10⁴ cells were seeded per well in 100 μL and incubated with serial diluted anti-CD93 antibodies in 100 μL on ice for 2 hours. Samples were then washed by spinning samples at 1200 rpm for 5 minutes. Media was discarded and cells were resuspended in 200 μL ice cold FACS buffer. Cells were washed again and resuspended in 100 μL of secondary Antibody, AlexaFluor647 conjugated anti-human IgG or anti-mouse IgG antibodies (Jackson ImmunoResearch), diluted 1:500 in FACS buffer. Plates were covered with foil to protect from like and incubated for 1 hour on ice. Cells were washed again resuspended in 200 μL ice cold FACS buffer. Cells were washed again and were resuspended in 200 μL fixing solution (PBS with 1% formaldehyde). Samples were stored at 4° C. covered in foil, then were acquired in NovoCyte Flow Cytometer and analyzed by NovoExpress software.
(A flow cytometer gives signals particle by particle.)

The target in assay [2] is T1, Human CD93 on cells (human CD93 …). The assay can be described thus: flow cytometry titration on U937 cells -human serum; column head printed kd, unit from the axis log (concentration (M)). As for the experimental part:
Cells were quenched with media then counted. Cells were resuspended in FACS buffer (ice cold PBS with 0.5% BSA) and put on ice ˜20 min. 5×10⁴ cells were seeded per well in 100 μL and incubated with serial diluted anti-CD93 antibodies in 100 μL on ice for 2 hours. Samples were then washed by spinning samples at 1200 rpm for 5 minutes. Media was discarded and cells were resuspended in 200 μL ice cold FACS buffer. Cells were washed again and resuspended in 100 μL of secondary Antibody, AlexaFluor647 conjugated anti-human IgG or anti-mouse IgG antibodies (Jackson ImmunoResearch), diluted 1:500 in FACS buffer. Plates were covered with foil to protect from light and were incubated for 1 hour on ice. Samples were then washed again and resuspended in 200 μL ice cold FACS buffer. Cells were washed again and resuspended in 200 μL fixing solution (PBS with 1% formaldehyde). Samples were stored at 4° C. covered in foil, ands were subsequently acquired in NovoCyte Flow Cytometer and analyzed by NovoExpress software.

Assay [3] has the same target. Put plainly: flow cytometry titration on HUVEC cells -human serum; column head printed kd, unit from the axis log (concentration (M)). The method, then:
(§1) Recombinant parental anti-CD93 antibodies were evaluated for their ability to bind to HUVEC cells in the presence or absence of human serum. […] Antibodies were purified using Protein G Sepharose. The resulting antibodies were tested for its binding capacity to a variety of cells that express CD93. […] Cells were quenched with media then counted. Cells were resuspended in FACS buffer (ice cold PBS with 0.5% BSA) and human serum was added to 20% (10% final volume) and put on ice for approximately 20 minutes. 5×10⁴ cells were seeded per well in 100 μL media and incubated with serial diluted anti-CD93 antibodies in 100 μL on ice for 2 hours. Cells were then washed by spinning cells at 1200 rpm for 5 min. Media was discarded and cells were resuspended in 200 μL ice cold FACS buffer. The wash step was repeated and cells were resuspended in 100 μL of secondary antibody, AlexaFluor647 conjugated anti-human IgG or anti-mouse IgG antibodies (Jackson ImmunoResearch), diluted 1:500 in FACS buffer. Plates were blocked from light and incubated 1 hour at 4° C. Cells were then washed again then were resuspended in 200 μL ice cold FACS buffer. Cells were washed again and resuspended in 200 μL fixing solution (PBS with 1% formaldehyde). Samples were stored at 4° C. covered in foil, then were acquired in NovoCyte Flow Cytometer and analyzed by NovoExpress software.

Assay [4] shares this target. The assay can be described thus: flow cytometry, CHO cells overexpressing human CD93, antibody 0.01ug, mIgG1 as control, APC-A.
For assay [5] the target is unchanged. Put plainly: flow cytometry titration on HUVEC cells +human serum; column head printed kd, unit from the axis log (concentration (M)). The method, then:
as §1

The target is the same in assay [6]. The assay can be described thus: flow cytometry, CHO-hCD93 cells, APC-A.
Assay [7] has the same target. The assay can be described thus: flow cytometry blocking assay, CHO-hCD93 cells, antibody 50 ug/ml then MMRN2 0.5 ug/ml, APC-A. As for the experimental part:
(§2) After incubation, the cells were washed with FACS buffer and incubated with anti-His conjugated APC or streptavidin conjugated APC at a ratio of 1:500 for 30 minutes at 4° C. After washing with FACS buffer twice, the samples were analyzed and data acquired in NovoCyte Flow.

Assay [8] has as its target T2, Mouse CD93 on cells (mouse CD93 expressing CHO cells; mouse CD93 expressing HEK cells) (mouse, UniProt O89103 23-644).
T2 construct: whole, on cells; also called mCD93 HEK; CD93-HEK cells
T2 sequence (looked up): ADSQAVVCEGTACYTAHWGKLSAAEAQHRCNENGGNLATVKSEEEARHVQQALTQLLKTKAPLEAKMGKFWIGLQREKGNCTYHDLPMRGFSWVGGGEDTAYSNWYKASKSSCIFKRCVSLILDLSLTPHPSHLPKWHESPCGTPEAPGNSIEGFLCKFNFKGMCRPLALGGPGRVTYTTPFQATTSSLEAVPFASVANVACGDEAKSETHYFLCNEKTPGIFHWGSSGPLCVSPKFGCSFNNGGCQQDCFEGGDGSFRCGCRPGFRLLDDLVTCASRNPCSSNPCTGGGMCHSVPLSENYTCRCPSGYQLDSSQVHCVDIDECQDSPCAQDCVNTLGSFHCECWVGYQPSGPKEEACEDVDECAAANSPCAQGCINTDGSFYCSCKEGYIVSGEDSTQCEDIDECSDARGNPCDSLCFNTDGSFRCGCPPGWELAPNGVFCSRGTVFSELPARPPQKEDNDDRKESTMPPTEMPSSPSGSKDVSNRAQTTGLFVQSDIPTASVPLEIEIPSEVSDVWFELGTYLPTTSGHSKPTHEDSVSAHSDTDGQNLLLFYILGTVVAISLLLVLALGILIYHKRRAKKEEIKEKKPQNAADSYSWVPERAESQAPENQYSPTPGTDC
The assay can be described thus: summary table; method and form of mouse CD93 not given.

Assay [9] deals with T1, Human CD93 on cells (human CD93 …). Put plainly: summary table, column FACS (CHO-hCD93 cells).
Assay [10] has the same target. The assay can be described thus: summary table, column FACS (HUVEC cells).
Assay [11] addresses T3, Human CD93 recombinant protein (Sino Biological Inc, Catalog #12589-H08H) (human, UniProt Q9NPY3 22-580).
T3 construct: Biotinylated (EZ-LINK NHS-PEG4 biotin) in the BLI assays; also called hCD93; His-tagged human CD93
T3 sequence (looked up): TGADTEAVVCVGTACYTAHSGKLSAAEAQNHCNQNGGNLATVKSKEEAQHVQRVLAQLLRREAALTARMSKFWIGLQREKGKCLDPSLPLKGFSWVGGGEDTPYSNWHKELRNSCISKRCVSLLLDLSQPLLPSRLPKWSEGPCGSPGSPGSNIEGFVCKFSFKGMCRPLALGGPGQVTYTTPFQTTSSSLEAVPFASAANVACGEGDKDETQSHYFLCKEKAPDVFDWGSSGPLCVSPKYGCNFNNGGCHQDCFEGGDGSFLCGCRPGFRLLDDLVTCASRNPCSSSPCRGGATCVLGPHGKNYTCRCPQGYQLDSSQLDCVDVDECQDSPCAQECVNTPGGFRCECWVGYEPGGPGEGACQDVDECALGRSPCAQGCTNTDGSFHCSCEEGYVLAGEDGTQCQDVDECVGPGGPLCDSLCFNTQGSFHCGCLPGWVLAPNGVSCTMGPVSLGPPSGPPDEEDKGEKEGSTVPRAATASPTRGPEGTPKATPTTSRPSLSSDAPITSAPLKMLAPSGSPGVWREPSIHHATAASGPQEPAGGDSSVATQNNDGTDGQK
Put plainly: summary table, column Octet (hCD93). For orientation: BLI is a label-free optical method that tracks binding on a fibre tip over time.

Assay [12] deals with T3, Human CD93 recombinant protein (Sino …). Put plainly: summary table, column ELISA (hCD93). In general terms: An ELISA detects its analyte on a solid surface through an enzyme-linked reagent.
The target is the same in assay [13]. Put plainly: BLI (Octet), human CD93; sheet prints Anti-Penta-HIS(HIS1K) biosensor.
In assay [14] the target is T1, Human CD93 on cells (human CD93 …). Put plainly: flow cytometry blocking assay, CHO-hCD93 cells, antibody 50 ug/ml then MMRN2 0.1 ug/ml, APC-A. The method, then: as §2
Assay [15] concerns the target T3, Human CD93 recombinant protein (Sino …). Put plainly: ELISA, hCD93-His coated, OD450. As for the experimental part: His-tagged human CD93 was coated onto a 96 well plate at 1 μg/mL in 1×PBS overnight at 4° C. The plate was washed with ELISA wash buffer (Boston BioProduct, Inc.) and the wells were blocked with ELISA blocking buffer for 1 hour at 37° C. Purified antibodies were serially diluted in ELISA blocking buffer (Boston BioProduct, Inc.) and incubated on the receptor for 1 hour at 37° C. The plate was washed with ELISA wash Buffer. […] The plate was washed with ELISA wash buffer. HRP substrate was added for indirect detection of the antibodies binding to CD93.

B1: Recombinant parental 17B10 with a human CH1 domain and mouse IgG1 CH2 and CH3 Fc domains (antibody, V domains shown)
VH: QVQLQQSGPELVKPGASVKISCKASGYAFSSYWLNWVKQRPGKGLEWFGRIYPGDGDTDYNGKFKGKATLTADKSSSTAYMQLRSLTSEDSAVYFCVRGDGYWAMDYWGQGTSVTVSS
VL: DIVMTQAAFSNPVTLGTSASISCRFSKSLLHSNGITYLYWYLQKPGQSPQLLIYQMSNLASGVPDRFSSSGSGTDFTLRISRVEAEDVGVYYCAQNLELPWTFGGGTKLEIK
As to B1, the Kd in [1] is 0.163 nM; in assay [2], 0.0666 nM; in [3], 0.111 nM; in assay [5], 0.196 nM. For the same molecule, the “M2 gate, % of cells” value in assay [4] amounted to 98.4%.

B2: 7F3 (hybridoma) (antibody, IgG1, V domains shown)
VH: QVQLQQSGADLVRPGASVKLSCKASGYTFTDYEMHWVKQTPVYGLEWIGGIDPETGDTAYNQNFKGKATLTADKSSSAAYMELRSLTSEDSAVYYCTNYGNLYYYAMDYWGQGTSVTVSS
VL: ENVLTQSPAIMSASPGEKVTMTCRASSSVSSSYLHWYQQKSGASPKLWIYSTSNLAFGVPARFSGSGSGTSYSLTISSVEAEDAATYYCQQYSGYPLTFGSGTKLEIK
notes: also called 7F3 mAb; 7F3 mIgG1
For B2, in assay [6], the “M3 gate, % of cells” value was 96.3%. Also, the “M3 gate, % of cells positive for MMRN2 after the antibody” value was 9.93% in assay [7] and 12.2% in [14]. Besides, the binding result in [8] is reported as “no binding”. In addition, the EC50 came to 0.21 nM in assay [9], 2.94 nM in assay [10], 0.0667 nM in [12] and 0.0667 nM in [15]. For the same molecule, the values for the Kd in assay [11] and in assay [13] were 0.493 nM and 1.26 nM, respectively. Moreover, in assay [13], the koff is 0.000478 s⁻¹. In addition, the kon in assay [13] was 381000 M⁻¹ s⁻¹.

The Kd is the free concentration of one partner at which half of the binding sites on the other are occupied at equilibrium, for simple one-to-one binding. By EC50 is commonly meant the concentration at which the effect is half-maximal. A word on the koff: it is the rate constant with which the complex falls apart. A word on the kon: it is the rate constant with which the complex forms.
